According to article PMC1807957:

T1: POLγB-RK (UniProt Q9UHN1 26-485, R328A;K329A)
T1 sequence: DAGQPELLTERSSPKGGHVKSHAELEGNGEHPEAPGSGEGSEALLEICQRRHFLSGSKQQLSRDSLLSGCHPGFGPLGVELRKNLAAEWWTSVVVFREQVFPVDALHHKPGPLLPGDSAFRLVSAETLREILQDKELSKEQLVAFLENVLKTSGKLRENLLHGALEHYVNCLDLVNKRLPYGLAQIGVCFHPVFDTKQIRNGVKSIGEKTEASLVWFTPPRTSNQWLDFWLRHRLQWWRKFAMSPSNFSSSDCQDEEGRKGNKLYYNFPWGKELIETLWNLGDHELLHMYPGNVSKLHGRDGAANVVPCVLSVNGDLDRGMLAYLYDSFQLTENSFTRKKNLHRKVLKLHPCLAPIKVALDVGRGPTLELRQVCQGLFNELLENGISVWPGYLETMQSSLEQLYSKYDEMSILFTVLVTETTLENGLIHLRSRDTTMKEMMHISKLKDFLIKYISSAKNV

T2: POLγB wild type (accessory subunit of DNA polymerase γ) (UniProt Q9UHN1 26-485)
T2 sequence: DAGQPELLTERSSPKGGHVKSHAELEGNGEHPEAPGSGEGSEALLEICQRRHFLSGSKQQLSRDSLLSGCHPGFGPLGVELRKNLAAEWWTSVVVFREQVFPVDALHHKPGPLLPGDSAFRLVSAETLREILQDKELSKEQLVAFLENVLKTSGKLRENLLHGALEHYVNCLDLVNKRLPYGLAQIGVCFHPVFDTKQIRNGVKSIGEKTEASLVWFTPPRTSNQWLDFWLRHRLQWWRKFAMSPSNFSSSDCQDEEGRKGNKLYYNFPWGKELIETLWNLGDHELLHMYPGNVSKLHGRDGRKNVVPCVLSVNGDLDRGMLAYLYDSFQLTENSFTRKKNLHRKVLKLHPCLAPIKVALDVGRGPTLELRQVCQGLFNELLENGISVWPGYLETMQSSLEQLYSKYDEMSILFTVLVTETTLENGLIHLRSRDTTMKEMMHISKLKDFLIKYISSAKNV

T3: POLγB-VV (UniProt Q9UHN1 26-485, V119A;V125A)
T3 sequence: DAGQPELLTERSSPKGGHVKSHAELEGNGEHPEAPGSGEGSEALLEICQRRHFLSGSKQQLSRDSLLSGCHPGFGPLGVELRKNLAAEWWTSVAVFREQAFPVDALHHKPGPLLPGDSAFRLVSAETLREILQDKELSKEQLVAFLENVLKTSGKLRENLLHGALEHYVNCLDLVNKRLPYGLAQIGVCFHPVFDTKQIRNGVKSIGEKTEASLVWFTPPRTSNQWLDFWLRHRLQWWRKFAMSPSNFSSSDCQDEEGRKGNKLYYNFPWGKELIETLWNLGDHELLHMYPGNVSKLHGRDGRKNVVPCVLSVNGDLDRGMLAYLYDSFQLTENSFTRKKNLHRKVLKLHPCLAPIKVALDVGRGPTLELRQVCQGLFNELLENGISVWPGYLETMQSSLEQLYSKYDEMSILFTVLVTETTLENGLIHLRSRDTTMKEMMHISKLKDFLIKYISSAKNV

T4: POLγB-RKK (UniProt Q9UHN1 26-485, R363A;K364A;K365A)
T4 sequence: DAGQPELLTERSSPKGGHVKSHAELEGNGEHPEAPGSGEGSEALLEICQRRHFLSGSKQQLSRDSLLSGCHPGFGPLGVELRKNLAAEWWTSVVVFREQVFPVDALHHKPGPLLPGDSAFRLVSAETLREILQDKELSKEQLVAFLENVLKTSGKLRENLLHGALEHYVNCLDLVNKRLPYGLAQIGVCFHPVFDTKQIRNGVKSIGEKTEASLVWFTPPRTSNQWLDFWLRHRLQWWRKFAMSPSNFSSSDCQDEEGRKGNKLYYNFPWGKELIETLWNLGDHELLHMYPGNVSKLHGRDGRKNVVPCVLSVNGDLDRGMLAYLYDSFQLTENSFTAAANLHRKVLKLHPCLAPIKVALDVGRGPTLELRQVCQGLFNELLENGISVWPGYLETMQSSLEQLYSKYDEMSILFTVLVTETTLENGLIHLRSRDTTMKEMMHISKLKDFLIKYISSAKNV

B1: 50-bp dsDNA probe (dsDNA)
DNA 1: GGCGTATATCCAAATTAAAAGCATTTTTGATTGCATATATATCATCAGCT
DNA 2: AGCTGATGATATATATGCAATCAAAAATGCTTTTAATTTGGATATACGCC
B2: primed DNA template (35-mer/20-mer) (mixed)
DNA 1: TTTTTTTTTTATCCGGGCTCCTCTAGACTCGACCG
DNA 2: CGGTCGAGTCTAGAGGAGCC

Legend:
POLγB-RK = target: T1, POLγB-RK; experiment: EMSA
[1] = target: T2, POLγB wild type (accessory subunit of …); experiment: EMSA
POLγB-VV = target: T3, POLγB-VV; experiment: EMSA
POLγB-RKK = target: T4, POLγB-RKK; experiment: EMSA
[2] = target: POLγA (catalytic subunit of DNA polymerase γ);POLγB-VV (Homo sapiens?;Homo sapiens?, UniProt P54098;Q9UHN1 26-1239;26-485, |V119A;V125A); experiment: EMSA supershift
Chain of POLγA (catalytic subunit of DNA polymerase γ);POLγB-VV (P54098 26-1239, stated change not applied, one chain of several): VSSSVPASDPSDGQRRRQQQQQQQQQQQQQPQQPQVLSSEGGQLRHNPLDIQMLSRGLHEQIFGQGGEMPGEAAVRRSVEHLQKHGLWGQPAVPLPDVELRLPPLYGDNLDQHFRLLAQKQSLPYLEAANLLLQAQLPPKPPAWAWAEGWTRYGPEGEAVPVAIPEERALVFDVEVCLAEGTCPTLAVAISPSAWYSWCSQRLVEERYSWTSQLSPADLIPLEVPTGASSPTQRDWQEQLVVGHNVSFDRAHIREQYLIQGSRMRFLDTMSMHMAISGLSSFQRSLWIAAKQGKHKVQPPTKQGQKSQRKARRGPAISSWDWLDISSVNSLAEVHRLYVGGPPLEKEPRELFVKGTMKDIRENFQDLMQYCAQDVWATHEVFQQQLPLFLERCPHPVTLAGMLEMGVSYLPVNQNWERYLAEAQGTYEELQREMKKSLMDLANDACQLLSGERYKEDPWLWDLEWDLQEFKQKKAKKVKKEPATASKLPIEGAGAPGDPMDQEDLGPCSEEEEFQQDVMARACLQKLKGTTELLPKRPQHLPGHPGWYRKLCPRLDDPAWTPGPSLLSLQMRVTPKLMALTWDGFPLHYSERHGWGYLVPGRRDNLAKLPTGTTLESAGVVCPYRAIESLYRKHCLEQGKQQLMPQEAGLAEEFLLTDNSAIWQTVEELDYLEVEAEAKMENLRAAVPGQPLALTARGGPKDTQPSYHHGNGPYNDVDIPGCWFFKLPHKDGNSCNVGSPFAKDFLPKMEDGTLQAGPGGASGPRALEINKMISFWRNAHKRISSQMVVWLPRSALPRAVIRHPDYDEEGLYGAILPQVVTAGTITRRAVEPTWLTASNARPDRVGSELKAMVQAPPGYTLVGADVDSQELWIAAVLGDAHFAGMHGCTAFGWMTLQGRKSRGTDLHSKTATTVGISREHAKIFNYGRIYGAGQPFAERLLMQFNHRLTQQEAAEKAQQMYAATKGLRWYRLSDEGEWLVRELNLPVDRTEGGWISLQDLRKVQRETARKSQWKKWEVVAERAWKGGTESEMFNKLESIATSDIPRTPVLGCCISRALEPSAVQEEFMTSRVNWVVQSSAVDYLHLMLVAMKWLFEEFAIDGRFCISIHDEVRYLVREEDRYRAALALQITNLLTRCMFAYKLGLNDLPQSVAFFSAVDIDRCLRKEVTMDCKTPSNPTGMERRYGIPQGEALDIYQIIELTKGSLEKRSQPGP

[3] = target: POLγA (catalytic subunit of DNA polymerase γ) (UniProt P54098 26-1239); experiment: EMSA
Chain of POLγA (catalytic subunit of DNA polymerase γ) (P54098 26-1239): as the sequence (P54098 26-1239, stated change not applied, one chain of several) above

[4] = target: POLγA (catalytic subunit of DNA polymerase γ);POLγB-RK (Homo sapiens?;Homo sapiens?, UniProt P54098;Q9UHN1 26-1239;26-485, |R328A;K329A); experiment: EMSA, competitor challenge
Chain of POLγA (catalytic subunit of DNA polymerase γ);POLγB-RK (P54098 26-1239, stated change not applied, one chain of several): as above

[5] = target: POLγA (catalytic subunit of DNA polymerase γ);POLγB-RKK (Homo sapiens?;Homo sapiens?, UniProt P54098;Q9UHN1 26-1239;26-485, |R363A;K364A;K365A); experiment: EMSA, competitor challenge
Chain of POLγA (catalytic subunit of DNA polymerase γ);POLγB-RKK (P54098 26-1239, stated change not applied, one chain of several): as above

Binder | binding result (POLγB-RK) | binding result [1] | binding result (POLγB-VV) | binding result (POLγB-RKK) | binding result [2] | binding result [3] | binding result [4] | binding result [5]
B1 | no binding | binds | binds | no binding | – | – | – | –
B2 | – | – | – | – | binds | binds | binds | binds
